Data as given in publication PMC6925060 (Archives of toxicology, 2017).
Numbering of substitutions follows the chain as printed.

What was measured:
[1] = target: F-actin (rat, endogenous, 100,000 x g pellet) (rat (endogenous in RMC)) (UniProt P60711); experiment: co-sedimentation
[2] = target: human GST-cofilin (human) (UniProt P23528); experiment: pull-down
[3] = target: the molecule itself; experiment: cross-linking
[4] = target: the molecule itself; experiment: cross-linking; remark: listed apart in the source

Chain of human GST-cofilin (human) (P23528 whole entry): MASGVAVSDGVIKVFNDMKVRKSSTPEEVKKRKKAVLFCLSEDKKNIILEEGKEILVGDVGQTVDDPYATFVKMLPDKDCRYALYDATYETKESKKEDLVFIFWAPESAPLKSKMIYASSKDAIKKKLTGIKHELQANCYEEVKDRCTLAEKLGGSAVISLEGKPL

disulfide-crosslinked CAP1 dimer (rat, endogenous, from Cd2+-treated cells) (from UniProt Q08163 1-474) (complex)
dimer:monomer ratio in the pellet, percent of that in the supernatant [1]: 172%

B1: disulfide-crosslinked CAP1 dimer (rat, endogenous, from Cd2+-treated cells) (complex)
chain: MADMQNLVERLERAVGRLEAVSHTSDMHCGYGDSPSKGAVPYVQAFDSLLANPVAEYLKMSKEIGGDVQKHAEMVHTGLKLERALLVTASQCQQPAGNKLSDLLAPISEQIQEVITFREKNRGSKFFNHLSAVSESIQALGWVALAAKPGPFVKEMNDAAMFYTNRVLKEYRDVDKKHVDWVRAYLSIWTELQAYIKEFHTTGLAWSKTGPVAKELSGLPSGPSVGSGPPPPPPGPPPPPVPTSSGSDDSASRSALFAQINQGESITHALKHVSDDMKTHKNPALKAQSGPVRSGPKPFSAPKPQTSPSPKPATKKEPALLELEGKKWRVENQENVSNLVIDDTELKQVAYIYKCVNTTLQIKGKINSITVDNCKKLGLVFDDVVGIVEIINSRDVKVQVMGKVPTISINKTDGCHAYLSKNSLDCEIVSAKSSEMNVLIPTEGGDFNEFPVPEQFKTLWNGQKLVTTVTEIAG
modifications: intermolecular disulfide crosslink, DTT-sensitive; involves Cys29 (shown by mutagenesis of mouse CAP1)
dimer:monomer ratio in the pull-down, percent of that in the total lysate [2]: 220%

B2: His-tagged recombinant mouse CAP1 (wild type), from HEK cells (natural protein, UniProt P40124 1-474, looked up)
chain: B1 chain with V87A, V241I, P242S
binding result [3]: binds

B3: adenylyl cyclase-associated protein CAP1 (rat, endogenous, monomer) (natural protein, rat (endogenous in RMC), UniProt Q08163 1-474, looked up)
chain: B1 chain
stoichiometry N [4]: 2
